From patent publication US20100291103A1 (DOMANTIS, published 2010)

Tests used:
TNFR1 on MRC-5 cells = target: T1, TNFR1 on MRC-5 cells (UniProt P19438 30-455, limits assumed); experiment: cell-based or functional assay
T1 sequence (looked up): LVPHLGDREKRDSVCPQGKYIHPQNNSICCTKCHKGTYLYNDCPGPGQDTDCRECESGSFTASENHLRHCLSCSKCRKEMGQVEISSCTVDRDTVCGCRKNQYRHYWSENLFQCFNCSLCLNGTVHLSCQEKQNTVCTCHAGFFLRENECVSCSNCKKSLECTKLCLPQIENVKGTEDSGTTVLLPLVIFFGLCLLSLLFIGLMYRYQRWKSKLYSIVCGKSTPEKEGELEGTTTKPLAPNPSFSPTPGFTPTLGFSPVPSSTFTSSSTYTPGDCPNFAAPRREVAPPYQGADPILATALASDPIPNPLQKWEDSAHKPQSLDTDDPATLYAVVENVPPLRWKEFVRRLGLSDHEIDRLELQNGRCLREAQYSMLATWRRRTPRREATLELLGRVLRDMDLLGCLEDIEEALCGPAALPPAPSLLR

[1] = target: T2, TNFR1-FC fusion (human TNFR1 receptor binding assay) (human, UniProt P19438 22-211, limits assumed); experiment: RBA assay; taken as the value of the Fc fusion
T2 construct: also called TNFR1 (RBA); not shown: Fc part, captured by goat anti-human IgG (H&L); not described further
T2 sequence (looked up): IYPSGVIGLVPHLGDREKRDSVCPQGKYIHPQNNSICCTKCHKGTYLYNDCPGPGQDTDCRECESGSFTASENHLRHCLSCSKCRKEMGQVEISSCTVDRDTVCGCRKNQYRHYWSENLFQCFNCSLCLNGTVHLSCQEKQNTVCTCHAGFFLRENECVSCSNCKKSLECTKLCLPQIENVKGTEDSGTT

B1: DOM1h-131-206 (other)
VH: EVQLLESGGGLVQPGGSLRLSCAASGFTFAHETMVWVRQAPGKGLEWVSHIPPDGQDPFYADSVKGRFTISRDNSKNTLYLQMNSLRAEDTAVYHCALLPKRGPWFDYWGQGTLVTVSS
ND50, MRC-5 cell-based assay (TNFα stimulated IL-8 release) (TNFR1 on MRC-5 cells): 0.71 nM

B2: DMS1544 (DOM1h-131-206 Fc fusion) (Fc fusion, not shown: a dimerising Fc or GST)
chain: EVQLLESGGGLVQPGGSLRLSCAASGFTFAHETMVWVRQAPGKGLEWVSHIPPDGQDPFYADSVKGRFTISRDNSKNTLYLQMNSLRAEDTAVYHCALLPKRGPWFDYWGQGTLVTVSSASTHTCPPCPAPELLGGP
notes: Dimeric Fc fusion
Activity (nM), RBA [1]: 0.047 nM
